# Assay results from article PMC5967863.
# Target: full-length human TRPC3 (human) (UniProt Q13507)
# Test: cryo-EM structure; purified TRPC3 at 5 mg/mL in 20 mM Tris 8.0, 500 mM NaCl, 1 mM EDTA, 0.1% digitonin; single-particle reconstruction with C4 symmetry, 3.3 Å
substance,measurement,value
full-length human TRPC3 (from UniProt Q13507 1-921) (natural protein),stoichiometry N,4
